From a protein production outcome set (Wang et al. 2014) come the findings set out here.

A short description of this data set: label from the status in PepcDB records.
As to “MENEKLPYISVIIIAYNRKEFLLDAIKSALNQTLDREYYEIIVIKNFQDDTIDNFIKENNIKGIISENKSLGGKISEALYVSKGEIVSFLEDDDLFFPNKLREVYDIFISNPNLVYYHNNFIKTNNRLFEIDYSENKKNKKIFLKLIELNNIKTINYLISKKLIAFNMSAITIRKSYFNDCLDILENIRIAHDMCFFFCLSGKSDTSKEILIYDKPLSIWFIHNSWSNTSCDLEIKNFKNKNFTIAKETLNAIVYIFNEFCIKNNLYNFYDNKQPLCDYLKLTISARKSQLYLLNEYEININDIKLFFKFVTMRKSIYLSGAFILVLFGKFISKKLSTKIFLYISFLLNTI”, the protein production result is “failed”.
The entry for “MSKQLLALNIDGALLRSNGKIHQATKDAIEYVKKKGIYVTLVTNRHFRSAQKIAKSLKLDAKLITHSGAYIAEKIDAPFFEKRISDDHTFNIVQVLESYQCNIRLLHEKYSIGNKKKVNSNLLGKALIHPSDPIFYPVQFVESLSDLLMDEPVSAPVIEVYTEHDIQHDITETITKAFPAVDVIRVNDEKLNIVPKGVSKEAGLALVASELGLSMDDVVAIGHQYDDLPMIELAGLGVAMGNAVPEIKRKADWVTRSNDEQGVAYMMKEYFRMQQRKGFLDKFHMKRV” is “failed”; for “MVDELFCPQCGMLKRRCKCRKRSIRQRNLELLKKVGYKEFLLPLFDTDDEIVLYKVLRPFREKPTEELDFLPSELASCLRKRGIGRLYPFQKEAMIRLMEGRDVVITAPTGFGKTEAFAVPMLWRALHGGKAMVFYPTKALARDQEEKIKFYTSSLGLRAVRFDGDSGREERRAVLSGKCDIILTNPDMVDYHLRNTPAFRRICRELSFIAVDELHTYTGVLGSNMHYLVKRLSRFAEFQIACASATLSNAAEFAEELFDRDFVLVSGEHRKGTLHLIFRYTPSLYSAVREIVTALRNRKIIVFGNSYKSVETINLILRRHGLKSAIHKSGLPKEVREEVEAKFKRGEINIVVSTPTLELGVDIGDVDVVVSELVPYGQMIQRVGRAGRKGQESVGVVILREDDSISTYYRTKPEDYFKEEANGYVERHNEEVMKFQLISMCIEKPVRLEELDRQSAEIMQKLQAQGIVVEREGAFHPTAKAIELSRAFSFRGIGDAVKIYHDGKYIGERALPIAVKELFPGSILVHNGVRYRTVELDLKRLRAEVVELDYGNEITDPLYMTIPRIIEVEDEIEEPVNAVYCSIEINYLVHGYIERDVFDRERKAFHYLDEPVSYTFKTKGFLFSAPFPDPADYEDYYAGSFHALEHVIIETTDAITGGGSREMGGISVPEGDIFVYDASVGGSGLSKLLFKRLRRAFEISKTILESCDCGRVDGCPKCTYSYQCGNNNQPLNRIGALNIAEKVIKGVKRKTDWRKYTDVIEIRYFPLEHHHHHH” it is “failed”; for “MSVDIVHLADSELGKIVALLATSITIVPLFKRLGLGSVLGYLVAGCLIGPSVLGLFQNPQSIVHMAELGVVMFLFIIGLEMHPELLWSMRKAIFGRGFLQVLTCGTLLTFAGIHLIGLTTAVAFVVGAGFTLSSTAIVMQVLEDKGISSAPKGQRIVSTLLFEDLAIVPLLASMTFLAPSTEGATTGINSAAISIAVIGIIILVASSKWIMNPLFRMISKAKVREMMTAAALLVVLGAALLMELSGLSMAMGAFVAGVMLSESSFRHQLEADIEPFRGLLLGLFFMGVGMSLDLKFVFDDLFLLLSLVVILVLGKAISVYVIGLLTLLSHREALMRMSIMSHGGEFAFVLFSAAAAVGILDEDQQATFTAAVIISMLLSPLVVLMVQRIMTRKAKPEAPSMAGIEVAEDLENSVIVIGFGRFSQIVCQILLARGITVTVIDANTDRIRAAARFGFKVYYGDGTRLDVLRASGLAKADCVVLGINDPTRSASIVEQIKHEFPLMPIFARTYDRYSAIQLTKLHVDFQIRETFESALVLSKATMMKLGIDEVEALEVIESVRVLDKERFKEELIYGTSAELIRKYFTPKPLVKPQQPAEALNEYAAEILAETDESQHCQDNLNKKADV” it is “failed”.
As for “MDIKYKFPFALIIASAALVGCTSNQVKKEEAKPNPLPKLAQTQTQALVPIFSQSVSSMPKADPLRLQLDTLNGVIFVPDPKGKVSAYRGKERLWTTRVTKHRLTAGTVAGEGIVVVGNIKGELIALDQQTGQQKWKAQLTGAVLSPSLIYQGRVTTIANDGTVFAHDAETGQQVWTYKMPTIQFSLRGQPSPVMLDDRTVVVASANGYVYGIDVISGVPRFQRRVAVSEGRSDIQRLIDIDGDPVVSGQYLVTVSYQGQVTVTDLTNLSVVWNQDASSNKRPAVYDNKVFVAQADGKLTAYDLGTGSKLWESDVLLNRQLSNPVMLGKDLVVGDLDGVIHLINPDSGQLIGRAKTRGEVSSLRVVDGHLYTSTRKGALTIWEVR”, the protein production result is on record as “failed”.
